This assay deals with T1, Streptavidin (UniProt P22629 37-163, limits assumed).
T1 construct: also called negative antigen; irrelevant antigen
The experiment in a line: ELISA, scFv.

T1 sequence (P22629 37-163 limits assumed): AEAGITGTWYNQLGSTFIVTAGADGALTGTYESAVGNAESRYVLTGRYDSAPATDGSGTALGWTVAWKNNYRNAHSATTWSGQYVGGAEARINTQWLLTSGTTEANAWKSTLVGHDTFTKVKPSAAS

B1: A-009 (scFv format) (scFv, V domains shown)
VH: QVQLVQSGAEVKKPGSSVKVSCKASGGTFSSYAISWVRQAPGQGLEWMGGIIPIFGTANYAQKFQGRVTITADESTSTAYMELSSLRSEDTAVYYCARGRGFGELYFDYWGQGTLVTVSS
VL: ETTLTQSPATLSVSPGERATLSCRASQGVRSNIAWYQQKPGQAPRLLIYDSSTRATGIPARFSGSGSGTEFTLTISSLQSEDFAVYSCQQYKNWPRTFGQGTKVEIK
notes: scFv
For the molecule B1, the binding result is listed as “no binding (tested: <0.025 or <0.05 RFU)”.

B2: A-025 (scFv format) (scFv, V domains shown)
VH: QVQLVQSGAEVKKPGSSVKVSCKASGGTFSSYAISWVRQAPGQGLEWMGGIIPIFGTANYAQKFQGRVTITADESTSTAYMELTSLRSEDTAVYYCARGGWLRQNWFDPWGQGTLVTVSS
VL: SSELTQDPAVSVALGQTVRITCQGDSLRSYYASWYQQKPGQAPVLVIYGKNNRPSGIPDRFSGSSSGNTASLTITGAQAEDEADYYCNSRDSSGNHPRVFGGGTKLTVL
notes: scFv
Take B2: the binding result is “no binding (tested: <0.025 or <0.05 RFU)”.

B3: A-027 (scFv format) (scFv, V domains shown)
VH: QVQLVQSGAEVKKPGSSVKVSCKASGGTFSSYAISWVRQAPGQGLEWMGGIIPIFGTANYAQKFQGRVTITADKSTSTAYMELSSLRSEDTAVYYCARARGSTWGYFDYWGQGTLVTVSS
VL: EIVLTQSPASLSLSPGERVTLSCRASQSVSNYLAWYQQKPGQAPRLLIYDASNRATGIPARFSGSGSGTDFTLTISSLEPEDFAVYYCQQRDNWPLTFGGGTKVEIK
notes: scFv
Consider B3, for which the binding result was “no binding (tested: <0.025 or <0.05 RFU)”.

B4: A-022 (scFv format) (scFv, V domains shown)
VH: EVQLLESGPGLVKPSQTLSLTCTVSGGSISSGGYYWSWIRQHPGKGLEWIGYIYYSGSTYYNPSLKSRVTISVDTSKNQFSLKLSSVTAADTAVYYCARASRSTDYYFDYWGQGTLVTVSS
VL: QPGLTQPPSMSYGLGQTATLTCTGNRNNIGDQGAAWLQQHQGHPPKLLSYRNNNGPSGISERLSASRSGNTASLTISGLQPEDEADYYCSAWDSSLRAWVFGGGTKLTVL
notes: scFv
As to B4, the binding result is listed as “no binding (tested: <0.025 or <0.05 RFU)”.

B5: A-015 (scFv format) (scFv, V domains shown)
VH: not shown
VL: QPVLTQSPSASASLGASVKLTCTLSSGHTNYAIAWRQQQPGKAPRYLMLLNSDGSHTRGGGIPDRFSGSSSGAERYLTISSLQSEDEADYYCMIWHNNAWVFGGGTKLAVL
notes: scFv
Take B5: the binding result is “no binding (tested: <0.025 or <0.05 RFU)”.

B6: A-029 (scFv format) (scFv, V domains shown)
VH: QVQLVQSGAEVKKPGSSVKVSCKASGGTFSSYAISWVRQAPGQGLEWMGGIIPIFGTANYAQKFQGRVTITADESTGTAYMELSSLRSEDTAVYYCARSYYYYYGMDVWGQGTTVTVSS
VL: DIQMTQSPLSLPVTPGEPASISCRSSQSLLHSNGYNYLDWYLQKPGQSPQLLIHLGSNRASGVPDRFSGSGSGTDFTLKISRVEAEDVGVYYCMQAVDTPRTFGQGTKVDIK
notes: scFv
Take B6: the binding result is reported as “no binding (tested: <0.025 or <0.05 RFU)”.

B7: A-001 (scFv format) (scFv, V domains shown)
VH: EVQLVESGGGLVKPGGSLRLSCAASGFTFSSYSMNWVRQAPGKGLEWVSSISSSSSYIYYADSVKGRFTISRDNAKNSLYLQMNSLRAEDTAVYYCVRSIIVQALGITSVFDIWGQGTMVTVSS
VL: AIRLTQSPSSLSASVGDRVTISCRASQIISNHLNWYQQKPGKAPKLLIYAASRLQTGVPSRFSGSGSETDYTLTISSLQPEDFATYYCQQSYSNPRTFGHGTKVEIK
notes: scFv
B7: the binding result is recorded as “no binding (tested: <0.025 or <0.05 RFU)”.

B8: A-002 (scFv format) (scFv, V domains shown)
VH: EVQLVESGGGLIQPGGSLRLSCAASGFTVSSNYMSWVRQAPGKGLEWVSVIYSGGSTYYADSVKGRFTISRDNSKNTLYLQMNSLRAEDTAVYYCARGNPYYYGDLQVNFDYWGQGTLVTVSS
VL: QAVVTQEPSLTVSPGGTVTPTCGSSTGAVTSGNLPNWFQQKPGQAPRALIYSTSNKHSWTPARISGSLLGGKAALTLSGVQPEDEAEYYCLLYYGGAWVFGGGTKLTVL
notes: scFv
Regarding B8, the binding result is “no binding (tested: <0.025 or <0.05 RFU)”.

B9: A-012 (scFv format) (scFv, V domains shown)
VH: EVQLLESGGGLIQPGGSLRLSCAVSGFTVSSNYMSWVRQAPGKGLEWVSVIYSGGSTYYADSVKGRFTISRDNSKNTLYLQMNSLRAEDTAVYYCARGNPYYYGDLQVNFDYWGQGTLVTVSS
VL: QAVVTQEPSLTVSPGGTVTLTCASSTGAVTSGYYPNWFQQKPGQAPRALIYSTSNKHSWTPARFSGSLLGGKAALTLSGVQPEDEAEYYCLLYYGGAWVFGGGTKLTVL
notes: scFv
As for B9, the binding result is “no binding (tested: <0.025 or <0.05 RFU)”.

B10: A-006 (scFv format) (scFv, V domains shown)
VH: EVQLVESGGGLIQPGGSLRLSCAASGFTVSSNYMSWVRQAPGKGLEWVSVIYSGGSTYYADSVKGRFTISRDNSKNTLYLQMNSLRAEDTAVYYCARGNPYYYGDLQVNFDYWGQGTLVTVSS
VL: QAVVTQEPSLTVSPGGTVTLTCASSTGAVTSGYYPNWFQQKPGQAPRPLIYSTSNKHSWTPARFSGSLLGGKAALTLSGVQPDDEAEYYCLLYYGGDWVFGGGTKLTVL
notes: scFv
Turning to B10, the binding result was “no binding (tested: <0.025 or <0.05 RFU)”.

B11: A-013 (scFv format) (scFv, V domains shown)
VH: EVQLVESGGGLIQPGGSLRLSCAASGFTVSSNYMSWVRQAPGKGLEWVSVIYSGGSTYYADSVKGRFTISRDNSKNTLYLQMNSLRAEDTAVYYCARGNPYYYGDLQVNFDYWGQGTLVTVSS
VL: QAVVTQEPSLTVSPGGTVTLTCASSTGAVTSAYYPNWFQQKPGQAPRALIYSTSNKHSWTPARFSGSLLGGKAALTLSGVQPEDEADYYCLLYYGGAWVFGGGTKLTVL
notes: scFv
Take B11: the binding result is “no binding (tested: <0.025 or <0.05 RFU)”.

B12: A-005 (scFv format) (scFv, V domains shown)
VH: EVQLVESGGGLIQPGGSLRLSCAASGFTVSSNYMSWVRQAPGKGLEWVSVIYSGGSTYYADSVKGRFTISRDNSKNTLYLQMNSLRAEDTAVYYCARGNPYYYGDLQVNFDYWGQGTLVTVSS
VL: QAVVTQEPSLTVSPGETVTLTCASSTGAVTSGYYPNWFQQRPGQAPRALIYSTSNKDSWTPARFSGSLLGGKAALTLSGVQPEDEAEYYCLLYYGGAWVFGGGTKLTVL
notes: scFv
For the molecule B12, the binding result was “no binding (tested: <0.025 or <0.05 RFU)”.

B13: A-023 (scFv format) (scFv, V domains shown)
VH: QVQLVQSGAEVKKPGSSVKVSCKASGGTFSSYAISWVRQAPGQGLEWMGGIIPIFGTANYAQKFQGRVTITADESTSTAYMELSSLRSEDTAVYYCARPKYSSGWFYYYGMDVWGQGTTVTVSS
VL: QSVLTQPPSVSAAPGQKVTISCSGSSSNIGNNYVSWYQQLPGTAPKLLIYDNNKRPSGIPDRFSGSKSGTSATLGITGLQTGDEADYYCGTWDSSLSVVFGGGTKLTVL
notes: scFv
For B13, the binding result was “no binding (tested: <0.025 or <0.05 RFU)”.

B14: A-008 (scFv format) (scFv, V domains shown)
VH: QLQLQESGPGLVKPSETLSLTCTVSGGSISSSGYYWGWIRQPPGKGLEWIGSIYYSGSTYYNPSLKSRVTISVDTSKNQFSLKLSSVTAADTAVYYCARHRVRFGEFDAFDIWGQGTMVTVSS
VL: QAVLTQPPSVSGAPGERVTLSCTGTSSNVGADFDVHWYQQFPGTAPRLLIFGSDNRPSGVPDRFSGSKSGTSASLAITGLQVEDEADYYCQAYDVRLSGWVFGGGTKLTVL
notes: scFv
As to B14, the binding result is on record as “no binding (tested: <0.025 or <0.05 RFU)”.

B15: A-003 (scFv format) (scFv, V domains shown)
VH: VQLVQSGAEVKKPGSSVKVSCKASGGTFSSYAISWVRQAPGQGLEWMGGIIPIFGTANYAQKFQGRVTITADESTSTAYMELSSLRSEDTAVYYCASPRIQLWAAGGFDYWGQGTLVTVSS
VL: QSALTQPASVSGSPGQSITISCTGTSSDVGGYNLVSWYQQHPGKAPKLMIYDVSNRPSGVSNRFSGSKSGNTASLTISGLQAEDEADYYCSSFTTSTTLVFGGGTKLTVL
notes: scFv
In the case of B15, the binding result is listed as “no binding (tested: <0.025 or <0.05 RFU)”.

B16: A-016 (scFv format) (scFv, V domains shown)
VH: QVQLQESGAEVKKPGASVKVSCKASGYTFTGYYMHWVRQAPGQGLEWMGGIIPIFGTANYAQKFQGRVTITADESTSTAYMELSSLRSEDTAVYYCAGAGMELTRSGAYYYYGMDVWGQGTTVTVSS
VL: QSALTQPASVSGSPGQSITISCTGTSSDIGGYTFVSWYQQHPGKAPKVMIHDVNNRPSGISNRFSGSKSGNTASLTISGLQAEDEADYYCSSVTSTNTYVFGTGTKVTVL
notes: scFv
For B16, the binding result was “no binding (tested: <0.025 or <0.05 RFU)”.

B17: A-007 (scFv format) (scFv, V domains shown)
VH: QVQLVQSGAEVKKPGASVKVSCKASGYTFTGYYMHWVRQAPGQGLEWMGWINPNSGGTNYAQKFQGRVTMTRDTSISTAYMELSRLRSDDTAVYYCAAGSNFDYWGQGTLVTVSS
VL: QSALTQPASVSGSPGQSITIACTGSSSDIGSFSYVSWYQQRPGKAPTLIIYGVNNRPLGVSRRFSGSKSGNTASLSISGLQAEDEADYYCSSYTRRSTVIFGGGTKLTVL
notes: scFv
B17: the binding result is reported as “no binding (tested: <0.025 or <0.05 RFU)”.

B18: A-010 (scFv format) (scFv, V domains shown)
VH: QVQLVQSGAEVKKPGASVKVSCKASGYTFTSYGISWVRQAPGQGLEWMGWISAYNGNTNYAQKLQGRVTMTTDTSTSTAYMELRSLRSDDTAVYYCARVPAWSGQFDYWGQGTLVTVSS
VL: QSALTQPASVSGSPGQSITISCTGSSSDVGGYNYVSWYQQYPGKAPKLMIYDVRSRPSGVSNRFSGSKSGNTASLTISGLQAEDEADYYCTSYTSSNTLVIFGGGTKVTVL
notes: scFv
Regarding B18, the binding result is reported as “no binding (tested: <0.025 or <0.05 RFU)”.

B19: A-024 (scFv format) (scFv, V domains shown)
VH: QMQLVQSGAEVKKPGSSVKVSCKASGGTFSSYAISWVRQAPGQGLEWMGWISAYNGNTNYAQKLQGRVTMTTDTSTSTAYMELRSLRSDDTAVYYCASLGSYGYTGAFDIWGQGTMATVSS
VL: QSALTQPASVSGSPGQSITISCTGTSSDVGGYNYVSWYQQHPGKAPKLMIYEVSNRPSGVSNRFSGSKSGNTASLTISGLQAEDEADYYCSSYTSSSTLVVFGGGTKLTVL
In the case of B19, the binding result is reported as “no binding (tested: <0.025 or <0.05 RFU)”.

B20: A-011 (scFv format) (scFv, V domains shown)
VH: QVQLVESGGGVVQPGRSLRLSCAASGFTFSSYAMHWVRQAPGKGLEWVAVISYDGSNKYYADSVKGRFTISRDNSKNTLYLQMNSLRAEDTAVYYCAEGGALNYYGMDVWGQGTTVTVSS
VL: SSELTQDPGVSVALGQTVRITCQGDSLRHFYATWYQQKPGQAPILVIYGKNNRPSGIPDRFSGSSSEDTASLTITGAQAEDEADYYCQSRDPRNNHLIFGGGTKLIVL
notes: scFv
On to B20, for which the binding result is on record as “no binding (tested: <0.025 or <0.05 RFU)”.

B21: A-033 (scFv format) (scFv, V domains shown)
VH: QVQLVQSGAEVKKPGASVKVSCKASGYTFTSYGISWVRQAPGQGLEWMGWISAYNGNTNYAQKLQGRVTMTTDTSTSTAYMELRSLRSDDTAVYYCARDHSIVGATTFDYWGQGTLVTVSS
VL: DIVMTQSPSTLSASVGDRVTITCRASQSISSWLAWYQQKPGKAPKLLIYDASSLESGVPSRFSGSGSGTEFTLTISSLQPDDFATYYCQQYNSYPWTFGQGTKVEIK
notes: scFv
With B21, the binding result is given as “no binding (tested: <0.025 or <0.05 RFU)”.

Source of the values: US20240010720A1 (IOMX THERAPEUTICS, published 2024).
